# Test results taken from US20200181261A1 (Bayer, published 2020).
# T1: human CEACAM1, full-length, on transfected HeLa cells (human, UniProt P13688 35-526)
# T1 construct: also called TPP-4185; HeLa human CEACAM1
# T1 sequence: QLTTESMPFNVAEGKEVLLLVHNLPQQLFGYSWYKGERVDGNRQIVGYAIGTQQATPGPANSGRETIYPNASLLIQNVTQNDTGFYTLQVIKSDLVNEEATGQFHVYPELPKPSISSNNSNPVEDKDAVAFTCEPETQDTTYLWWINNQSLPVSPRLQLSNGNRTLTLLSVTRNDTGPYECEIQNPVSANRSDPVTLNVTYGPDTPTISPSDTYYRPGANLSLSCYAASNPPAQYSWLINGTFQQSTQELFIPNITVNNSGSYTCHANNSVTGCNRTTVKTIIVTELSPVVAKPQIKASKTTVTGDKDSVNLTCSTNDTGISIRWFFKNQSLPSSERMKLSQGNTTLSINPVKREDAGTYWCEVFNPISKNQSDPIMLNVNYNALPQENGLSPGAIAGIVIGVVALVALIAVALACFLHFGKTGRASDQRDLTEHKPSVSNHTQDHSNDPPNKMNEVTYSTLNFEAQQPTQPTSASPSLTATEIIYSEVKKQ
# T2: human CEACAM3, full-length, on transfected HeLa cells (human, UniProt P40198 35-252)
# T2 construct: also called TPP-4187; HeLa human CEACAM3
# T2 sequence: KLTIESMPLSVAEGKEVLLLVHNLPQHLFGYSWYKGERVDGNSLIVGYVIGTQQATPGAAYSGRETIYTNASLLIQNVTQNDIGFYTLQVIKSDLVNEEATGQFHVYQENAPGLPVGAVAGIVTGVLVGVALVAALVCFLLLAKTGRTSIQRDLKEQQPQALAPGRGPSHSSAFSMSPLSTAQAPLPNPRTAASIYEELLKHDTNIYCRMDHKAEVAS
# T3: human CEACAM5, full-length, on transfected HeLa cells (human, UniProt P06731 35-685, GPI anchor at the C-terminus on the cell surface, not carried by the letters)
# T3 construct: also called TPP-4188; HeLa human CEACAM5
# T3 sequence: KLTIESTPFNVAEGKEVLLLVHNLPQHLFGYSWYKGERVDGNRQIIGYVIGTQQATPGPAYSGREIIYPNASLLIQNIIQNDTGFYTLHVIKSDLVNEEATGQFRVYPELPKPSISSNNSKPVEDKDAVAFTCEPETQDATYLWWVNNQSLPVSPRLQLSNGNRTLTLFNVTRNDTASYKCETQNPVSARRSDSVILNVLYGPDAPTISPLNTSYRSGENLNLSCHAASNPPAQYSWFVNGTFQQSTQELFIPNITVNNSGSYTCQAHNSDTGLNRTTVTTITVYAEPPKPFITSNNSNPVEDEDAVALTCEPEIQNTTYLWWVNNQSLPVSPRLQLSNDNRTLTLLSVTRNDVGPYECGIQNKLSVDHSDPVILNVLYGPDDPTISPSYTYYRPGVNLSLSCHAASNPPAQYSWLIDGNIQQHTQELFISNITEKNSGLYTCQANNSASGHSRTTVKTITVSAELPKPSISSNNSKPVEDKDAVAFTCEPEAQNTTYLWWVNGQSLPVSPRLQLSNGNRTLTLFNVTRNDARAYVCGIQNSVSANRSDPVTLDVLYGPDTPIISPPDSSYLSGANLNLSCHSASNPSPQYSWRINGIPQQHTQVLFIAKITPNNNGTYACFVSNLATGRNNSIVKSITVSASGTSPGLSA
# T4: human CEACAM6, full-length, on cells (human, UniProt P40199 35-320)
# T4 construct: used both for transfected HeLa cells and for tumor cell lines that express CEACAM6 endogenously; also called TPP-4639; HeLa human CEACAM6
# T4 sequence: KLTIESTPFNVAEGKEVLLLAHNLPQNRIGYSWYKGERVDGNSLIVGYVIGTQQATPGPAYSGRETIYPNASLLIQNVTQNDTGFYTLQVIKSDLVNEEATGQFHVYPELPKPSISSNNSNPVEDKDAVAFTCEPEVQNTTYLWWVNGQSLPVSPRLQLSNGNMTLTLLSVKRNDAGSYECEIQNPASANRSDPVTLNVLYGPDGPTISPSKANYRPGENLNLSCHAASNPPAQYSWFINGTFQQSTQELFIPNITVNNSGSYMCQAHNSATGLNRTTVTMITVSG
# T5: Macaca fascicularis (cynomolgus) CEACAM6, full-length, on transfected HeLa cells (Macaca fascicularis, GPI anchor at the C-terminus on the cell surface, not carried by the letters)
# T5 construct: also called TPP-4189; HeLa Cynomolgus CEACAM6
# T5 chain: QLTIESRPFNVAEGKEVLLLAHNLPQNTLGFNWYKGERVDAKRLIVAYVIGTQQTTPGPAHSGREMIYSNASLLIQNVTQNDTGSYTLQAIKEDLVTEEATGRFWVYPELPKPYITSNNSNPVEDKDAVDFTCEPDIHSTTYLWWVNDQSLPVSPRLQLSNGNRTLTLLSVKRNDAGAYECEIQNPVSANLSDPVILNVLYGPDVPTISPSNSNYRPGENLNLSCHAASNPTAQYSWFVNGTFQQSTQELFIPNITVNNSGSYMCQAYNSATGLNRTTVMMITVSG
# What was measured:
# Assay in all cases: FACS, transfected HeLa cells
# [1] = molecular target: T1, human CEACAM1, full-length, on …
# Experimental: (§1) For FACS experiments HeLa wild type cells were cultured in RPMI-1640, 10% FCS, while CEACAM-receptor transfected HeLa cells received in addition 0.5% Gentamycin (stock 10 mg/ml, Fa. PAA) and 200 μg/ml Hygromycin B (stock 50 mg/ml, Invitrogen). Cells were washed 3 times with PBS w/o Ca²⁺/Mg²⁺ and were detached from the culture plate non-enzymatically with EDTA dissociation buffer (Gibco). Cells were washed in cold FACS buffer (PBS w/o Ca²⁺/Mg²⁺ and heat-inactivated 3% FCS) and were counted using a countess machine (Invitrogen). 10⁵ cells per well were plated and incubated with the respective primary antibody (5 μg/ml) for 1 h at 4° C. on a plate shaker. […] After 2 times washing the cells were resuspended in 100 μl FACS buffer and were analysed on a FACS Canto II machine (Beckton Dickinson) or a FACS Array (Beckton Dickinson).
# (§2) For EC₅₀ analysis, the primary antibodies were used at increasing concentrations in a range from 0.1 nM to 100 nM. Half maximal binding values (EC₅₀) were determined by plotting the median fluorescence intensity signal against the concentration (logarithmic scale). Curve fitting of data was performed using the Graph Pad prism analysis software.
# [2] = molecular target: T2, human CEACAM3, full-length, on …
# Experimental: as §1, §2
# [3] = molecular target: T3, human CEACAM5, full-length, on …
# Experimental: as §1, §2
# [4] = molecular target: T4, human CEACAM6, full-length, on cells
# Experimental: as §1, §2
# [5] = molecular target: T5, Macaca fascicularis (cynomolgus) …
# Experimental: as §1, §2
binding result [1],binding result [2],binding result [3],EC50 [4] [pM],EC50 [5] [pM],FACS median fluorescence [4] [medianfluorescence],FACS median fluorescence [5] [medianfluorescence],Binder
no binding (tested: 5 µg/ml),no binding (tested: 5 µg/ml),no binding (tested: 5 µg/ml),1000,1000,,,"TPP-3714 (antibody, human IgG2, kappa, humanized from TPP-2971, human IgG2; also called TPP-2971HU2-hIgG2Kappa) heavy: QVTLRESGPALVKPTQTLTLTCTFSGFSLSTYGIGVGWIRQPPGKALEWLAHIWWNDNKYYSTSLKTRLTISKDTSKNQVVLTMTNMDPVDTATYYCARISLPYFDYWGQGTLVTVSSASTKGPSVFPLAPCSRSTSESTAALGCLVKDYFPEPVTVSWNSGALTSGVHTFPAVLQSSGLYSLSSVVTVPSSNFGTQTYTCNVDHKPSNTKVDKTVERKCCVECPPCPAPPVAGPSVFLFPPKPKDTLMISRTPEVTCVVVDVSHEDPEVQFNWYVDGVEVHNAKTKPREEQFNSTFRVVSVLTVVHQDWLNGKEYKCKVSNKGLPAPIEKTISKTKGQPREPQVYTLPPSREEMTKNQVSLTCLVKGFYPSDIAVEWESNGQPENNYKTTPPMLDSDGSFFLYSKLTVDKSRWQQGNVFSCSVMHEALHNHYTQKSLSLSPG light: DIQLTQSPSFLSASVGDRVTITCKASQNVGTAVAWYQQKPGKAPKLLIYSASNRYTGVPSRFSGSGSGTEFTLTISSLQPEDFATYYCQQYSSYPLTFGGGTKVEIKRTVAAPSVFIFPPSDEQLKSGTASVVCLLNNFYPREAKVQWKVDNALQSGNSQESVTEQDSKDSTYSLSSTLTLSKADYEKHKVYACEVTHQGLSSPVTKSFNRGEC"
no binding (tested: 5 µg/ml),no binding (tested: 5 µg/ml),no binding (tested: 5 µg/ml),600,800,10 to 100,100 to 1000,"TPP-3323 (antibody, human IgG2, kappa, V domains shown, human IgG2 chimera; also called TPP-3187X1-hIgG2; hIgG2 chimera of TPP-3187) VH: QVTLKESGPGILQPSQTLSLTCSFSGFSLTTYGIGVGWIRQPSGKGLEWLAHIWWNDNKYYNTALKSRLTISKDTSNNQVFLKIASVDTADTATYYCARISLPYFDYWGQGTTLTVSS VL: DIVMTQSQKFMSTSVGDRVSITCKASQNVGTAVAWYQQKPGQSPKLLIYSASNRYTGVPDRFTGSGSGTDFTLTISNMQSEDLADYFCQQYNNYPLTFGAGTKLELKR"
no binding (tested: 5 µg/ml),no binding (tested: 5 µg/ml),no binding (tested: 5 µg/ml),450,600,10 to 100,100 to 1000,"TPP-3308 (antibody, human IgG2, kappa, V domains shown, human IgG2 chimera; also called TPP-2971X1-hIgG2Kappa; hIgG2 chimera of TPP-2971) VH: QVTLKESGPGILQPSQTLSLTCSFSGFSLSTYGIGVGWIRQPSGKDLEWLAHIWWNDNKYYNTALKSRLTISKDTSNNQVFLKIASVDTADTATYYCARISLPYFDYWGQGTTLTVSS VL: DIVMTQSQKFMSTSVGDRVSITCKASQNVGTAVAWYQQKPGQSPKLLIYSASNRYTGVPDRFTGSGSGTDFTLTISNMQSEDLADYFCQQYSSYPLTFGAGTKLELKR"
